Data taken from publication PMC3373496, “An Evolutionarily Conserved Enhancer Regulates Bmp4 Expression in Developing Incisor and Limb Bud”.

B1: WTMsxBSCONS3 (dsDNA)
DNA 1: GACCCTATGTAATTGCATTCCTGAA
DNA 2: TTCAGGAATGCAATTACATAGGGTC
B2: MutMsxBSCONS3 (dsDNA)
DNA 1: GACCCTATCCGGCCTCATTCCTGAA
DNA 2: TTCAGGAATGAGGCCGGATAGGGTC
B3: Bicoid (dsDNA)
DNA 1: TCATGCCTGTAATCCCAGCACTCAG
DNA 2: CTGAGTGCTGGGATTACAGGCATGA
B4: WTPitxBSCONS3 (dsDNA)
DNA 1: AGTTCCCTACATAATCCTTACCGTG
DNA 2: CACGGTAAGGATTATGTAGGGAACT
B5: MutPitxBSCONS3 (dsDNA)
DNA 1: AGTTCCCTACAACGCATTTACCGTG
DNA 2: CACGGTAAATGCGTTGTAGGGAACT

Key:
GST-Msx2 = GST-Msx2 (UniProt Q03358 1-267); assay: EMSA; 1X phosphate buffer, 10% glycerol, 0.3 mg/ul BSA, 0.1 ug/ul DNaseI-digested poly[dG-dC], 20 ul, on ice 10 min + 20 min with probe; 6% native PAGE, 1x TBE, 4 C; details: protein: recombinant; tags: N-terminal GST (pGEX3X); label: 32P 5' end (PNK) when probe; blunt
GST-Msx2, sequence (Q03358 whole entry): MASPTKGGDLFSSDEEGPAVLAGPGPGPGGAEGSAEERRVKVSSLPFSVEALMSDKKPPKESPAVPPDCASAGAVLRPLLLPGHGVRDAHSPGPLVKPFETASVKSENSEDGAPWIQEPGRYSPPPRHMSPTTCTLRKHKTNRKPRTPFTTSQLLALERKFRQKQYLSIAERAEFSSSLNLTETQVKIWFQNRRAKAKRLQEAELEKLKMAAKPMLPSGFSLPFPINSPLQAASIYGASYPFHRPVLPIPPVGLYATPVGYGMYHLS

GST-Pitx1 = GST-Pitx1 (UniProt P70314 1-315); assay: EMSA; 1X phosphate buffer, 10% glycerol, 0.1 ug/ul DNaseI-digested poly[dG-dC], 20 ul, on ice 10 min + 20 min with probe; 6% native PAGE, 1x TBE, 4 C; details: protein: recombinant; tags: N-terminal GST (pGEX3X); label: 32P 5' end (PNK) when probe; blunt

Row | Binder | binding result (GST-Msx2) | binding result (GST-Pitx1)
1 | B1 | binds | –
2 | B2 | no binding | –
3 | B3 | – | binds
4 | B4 | – | binds
5 | B5 | – | no binding
